The numbers were not newly measured in patent US12453725B2, “Treatment of inflammatory disease” (Celleron Therapeutics Limited, priority 2019, dated 2025), which cites them from elsewhere.

For series [1] the following is noted: human, in vivo, cited from earlier work.
For series [2] the following is noted: human, in vivo; cited from earlier work.
The conditions of series [3]: in vivo; cited from earlier work.

For the substance “nivolumab: human monoclonal antibody that blocks the interaction between PD-1 and its ligands, PD-L1 and PD-L2; IgG4 kappa immunoglobulin”, the “grade 3/4 diarrhoea, patients” value in series [1] is on record as 1%-2%. In series [2], the abnormal liver tests entry was “clinical trials, between 7 patients in 100 had abnormal liver”; the diarrhoea or colitis result is listed as “nivolumab clinical trials, 13 patients in 100 developed”; the “disorders of hormone-producing glands” value was “trials, 10 patients in 100 developed disorders of hormone-”; the “immune-related colitis, patients” value is given as 13%. Also, in series [2], the kidney inflammation result is recorded as “nivolumab clinical trials, 3 patients in 100 developed kidney”; the lung inflammation entry is “clinical trials, 3 patients in 100 developed lung”; the rash result was “between 26 patients in 100 developed rash. Signs or”.

As for “ipilimumab: approved checkpoint inhibitor monoclonal antibody targeting CTLA-4”, the “incidence of grade 3/4 colitis” value in series [1] (5 mg/kg) is on record as 13%. For the same substance, in series [1], the “enterocolitis (grade 3 or 4 symptoms and/or biopsy proven)” value is recorded as 21% and the “grade 3/4 diarrhoea, patients” value is listed as 10%.

For the substance “pembrolizumab: humanized IgG4 monoclonal antibody that binds the programmed cell death-1 receptor”, the “grade 3/4 diarrhoea, patients” value in series [1] is 1%-2%. Moreover, the “colitis, listed frequency of GI side effect” value in series [3] is “common”.
